Experiments:
HypD = molecular target: T1, HypD (Escherichia coli, UniProt P24192, C41A); assay: HPLC (ZIC-HILIC) ADP formation, specific activity; format: biochemical; conditions: 50 mM HEPES, 2 mM MgCl2, pH 7.4, 37 °C, 500 μM ATP; protein alone
T1 construct: Strep-tagged HypD (plasmid pIBA5hypDWT), [4Fe-4S] protein, overproduced and anaerobically purified from E. coli BEF314 (delta hypB-E)

[1] = substrate: Nc1ncnc2c1ncn2[C@@H]1O[C@H](COP(=O)(O)OP(=O)(O)OP(=O)(O)O)[C@@H](O)[C@H]1O; assay: HPLC (ZIC-HILIC) ADP formation, Michaelis-Menten fit; format: biochemical, Escherichia coli; conditions: 50 mM HEPES, 2 mM MgCl2, pH 7.4, 37 °C, protein alone
Source text: HPLC (ZIC-HILIC) ADP formation, Michaelis-Menten fit on HypD

[2] = substrate: Nc1ncnc2c1ncn2[C@@H]1O[C@H](COP(=O)(O)OP(=O)(O)OP(=O)(O)O)[C@@H](O)[C@H]1O; assay: as above; format: biochemical, Escherichia coli; conditions: 50 mM HEPES, 2 mM MgCl2, pH 7.4, 37 °C, as-isolated complex
Source text: HPLC (ZIC-HILIC) ADP formation, Michaelis-Menten fit on HybG-HypD complex

[3] = substrate: Nc1ncnc2c1ncn2[C@@H]1O[C@H](COP(=O)(O)OP(=O)(O)OP(=O)(O)O)[C@@H](O)[C@H]1O; assay: as above; format: biochemical, Escherichia coli; conditions: 50 mM HEPES, 2 mM MgCl2, pH 7.4, 37 °C, protein alone; remark: listed apart in the source
Source text: HPLC (ZIC-HILIC) ADP formation, Michaelis-Menten fit on HybG

[4] = substrate: Nc1ncnc2c1ncn2[C@@H]1O[C@H](COP(=O)(O)OP(=O)(O)OP(=O)(O)O)[C@@H](O)[C@H]1O; assay: as above; format: biochemical, Escherichia coli; conditions: 50 mM HEPES, 2 mM MgCl2, pH 7.4, 37 °C, protein alone; remark: listed apart in the source
Source text: HPLC (ZIC-HILIC) ADP formation, Michaelis-Menten fit on HypC

[5] = substrate: Nc1ncnc2c1ncn2[C@@H]1O[C@H](COP(=O)(O)OP(=O)(O)OP(=O)(O)O)[C@@H](O)[C@H]1O; assay: as above; format: biochemical, Escherichia coli; conditions: 50 mM HEPES, 2 mM MgCl2, pH 7.4, 37 °C, as-isolated complex; remark: listed apart in the source
Source text: HPLC (ZIC-HILIC) ADP formation, Michaelis-Menten fit on HypC-HypD complex

T1 sequence (P24192 whole entry C41A): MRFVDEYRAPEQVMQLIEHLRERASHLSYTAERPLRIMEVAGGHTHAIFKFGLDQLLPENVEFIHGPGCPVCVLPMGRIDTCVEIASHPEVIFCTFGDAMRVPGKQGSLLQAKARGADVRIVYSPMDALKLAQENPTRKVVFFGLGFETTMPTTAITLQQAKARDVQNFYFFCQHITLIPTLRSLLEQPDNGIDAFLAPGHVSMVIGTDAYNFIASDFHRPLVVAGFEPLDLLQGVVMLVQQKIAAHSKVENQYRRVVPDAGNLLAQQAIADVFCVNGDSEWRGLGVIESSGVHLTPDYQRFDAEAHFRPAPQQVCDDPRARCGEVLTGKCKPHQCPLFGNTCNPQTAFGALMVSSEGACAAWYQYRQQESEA

`Nc1ncnc2c1ncn2[C@@H]1O[C@H](COP(=O)(O)OP(=O)(O)OP(=O)(O)O)[C@@H](O)[C@H]1O` [ATP] was tested, and the “HPLC (ZIC-HILIC) ADP formation, specific activity” value (HypD) was “The HypDC41A variant on its own had an ATPase activity”.

B1: HypD (Escherichia coli K-12) (protein)
chain: MRFVDEYRAPEQVMQLIEHLRERASHLSYTAERPLRIMEVCGGHTHAIFKFGLDQLLPENVEFIHGPGCPVCVLPMGRIDTCVEIASHPEVIFCTFGDAMRVPGKQGSLLQAKARGADVRIVYSPMDALKLAQENPTRKVVFFGLGFETTMPTTAITLQQAKARDVQNFYFFCQHITLIPTLRSLLEQPDNGIDAFLAPGHVSMVIGTDAYNFIASDFHRPLVVAGFEPLDLLQGVVMLVQQKIAAHSKVENQYRRVVPDAGNLLAQQAIADVFCVNGDSEWRGLGVIESSGVHLTPDYQRFDAEAHFRPAPQQVCDDPRARCGEVLTGKCKPHQCPLFGNTCNPQTAFGALMVSSEGACAAWYQYRQQESEA
notes: Strep-tagged HypD (plasmid pIBA5hypDWT), [4Fe-4S] protein, overproduced and anaerobically purified from E. coli BEF314 (delta hypB-E)
Molecule B1 has a Km [1] of 364.48 ± 100.16 µM and a Vmax [1] of 0.398 µmol/min/mg.

B2: HybG-HypD complex (Escherichia coli K-12) (protein)
chain 1: B1 chain
chain 2: MCIGVPGQVLAVGEDIHQLAQVEVCGIKRDVNIALICEGNPADLLGQWVLVHVGFAMSIIDEDEAKATLDALRQMDYDITSA
notes: heterodimer, HybG Strep-tagged (hypDEFhybGStrep plasmid), anaerobically co-purified from E. coli MC4100; small amounts of HypE occasionally co-purify
B2 was tested, and the Km [2] was 34.78 ± 8.77 µM and the Vmax [2] was 1.42 µmol/min/mg.

B3: HybG (Escherichia coli K-12) (protein)
chain: B2 chain 2
notes: Strep-tagged HybG (plasmid pIBA3hybGWT), anaerobically purified from E. coli BEF314 (delta hypB-E)
In the case of B3, the Km [3] is reported as 475.67 ± 29.91 µM and the Vmax [3] is reported as 0.56 µmol/min/mg.

B4: HypC (Escherichia coli K-12) (protein)
chain: CIGVPGQIRTIDGNQAKVDVCGIQRDVDLTLVGSCDENGQPRVGQWVLVHVGFAMSVINEAEARDTLDALQNMFDVEPDVGALLYGEEK
notes: Strep-tagged HypC (plasmid pIBA3hypCStrep), anaerobically purified from E. coli BEF314 (delta hypB-E)
In the case of B4, the Km [4] is reported as 235.72 ± 71.15 µM and the Vmax [4] is reported as 0.234 µmol/min/mg.

B5: HypC-HypD complex (Escherichia coli K-12) (protein)
chain 1: B1 chain
chain 2: B4 chain
notes: heterodimer, HypC Strep-tagged (pT7-7hypD-hypCStrep), anaerobically co-purified from E. coli MC4100 or BEF314
B5 gave a Km [5] of 143.48 ± 55.10 µM and a Vmax [5] of 0.995 µmol/min/mg.

From paper PMC6886295, “The iron–sulfur‐containing HypC‐HypD scaffold complex of the [NiFe]‐hydrogenase maturation machinery is an ATPase” (FEBS Open Bio, 2019)
